Reference: patent US10752921B2, “Enzymes and methods for styrene synthesis” (Phytogene, Inc., priority 2012, dated 2020)

B1: K190C (protein, listed as Saccharomyces cerevisiae)
chain: MRKLNPALEFRDFIQVLKDEDDLIEITEEIDPNLEVGAIMRKAYESHLPAPLFKNLKGASKDLFSILGCPAGLRSKEKGDHGRIAHHLGLDPKTTIKEIIDYLLECKEKEPLPPITVPVSSAPCKTHILSEEKIHLQSLPTPYLHVSDGGKYLQTYGMWILQTPDKKWTNWSIARGMVVDDKHITGLVICPQHIRQIADSWAAIGKANEIPFALCFGVPPAAILVSSMPIPEGVSESDYVGAILGESVPVVKCETNDLMVPATSEMVFEGTLSLTDTHLEGPFGEMHGYVFKSQGHPCPLYTVKAMSYRDNAILPVSNPGLCTDETHTLIGSLVATEAKELAIESGLPILDAFMPYEAQALWLILKVDLKGLQALKTTPEEFCKKVGDIYFRTKVGFIVHEIILVADDIDIFNFKEVIWAYVTRHTPVADQMAFDDVTSFPLAPFVSQSSRSKTMKGGKCVTNCIFRQQYERSFDYITCNFEKGYPKGLVDKVNENWKRYGYK
B2: K190N (protein, listed as Saccharomyces cerevisiae)
chain: MRKLNPALEFRDFIQVLKDEDDLIEITEEIDPNLEVGAIMRKAYESHLPAPLFKNLKGASKDLFSILGCPAGLRSKEKGDHGRIAHHLGLDPKTTIKEIIDYLLECKEKEPLPPITVPVSSAPCKTHILSEEKIHLQSLPTPYLHVSDGGKYLQTYGMWILQTPDKKWTNWSIARGMVVDDKHITGLVINPQHIRQIADSWAAIGKANEIPFALCFGVPPAAILVSSMPIPEGVSESDYVGAILGESVPVVKCETNDLMVPATSEMVFEGTLSLTDTHLEGPFGEMHGYVFKSQGHPCPLYTVKAMSYRDNAILPVSNPGLCTDETHTLIGSLVATEAKELAIESGLPILDAFMPYEAQALWLILKVDLKGLQALKTTPEEFCKKVGDIYFRTKVGFIVHEIILVADDIDIFNFKEVIWAYVTRHTPVADQMAFDDVTSFPLAPFVSQSSRSKTMKGGKCVTNCIFRQQYERSFDYITCNFEKGYPKGLVDKVNENWKRYGYK
B3: K190D (protein, listed as Saccharomyces cerevisiae)
chain: MRKLNPALEFRDFIQVLKDEDDLIEITEEIDPNLEVGAIMRKAYESHLPAPLFKNLKGASKDLFSILGCPAGLRSKEKGDHGRIAHHLGLDPKTTIKEIIDYLLECKEKEPLPPITVPVSSAPCKTHILSEEKIHLQSLPTPYLHVSDGGKYLQTYGMWILQTPDKKWTNWSIARGMVVDDKHITGLVIDPQHIRQIADSWAAIGKANEIPFALCFGVPPAAILVSSMPIPEGVSESDYVGAILGESVPVVKCETNDLMVPATSEMVFEGTLSLTDTHLEGPFGEMHGYVFKSQGHPCPLYTVKAMSYRDNAILPVSNPGLCTDETHTLIGSLVATEAKELAIESGLPILDAFMPYEAQALWLILKVDLKGLQALKTTPEEFCKKVGDIYFRTKVGFIVHEIILVADDIDIFNFKEVIWAYVTRHTPVADQMAFDDVTSFPLAPFVSQSSRSKTMKGGKCVTNCIFRQQYERSFDYITCNFEKGYPKGLVDKVNENWKRYGYK
B4: K190V (protein, listed as Saccharomyces cerevisiae)
chain: MRKLNPALEFRDFIQVLKDEDDLIEITEEIDPNLEVGAIMRKAYESHLPAPLFKNLKGASKDLFSILGCPAGLRSKEKGDHGRIAHHLGLDPKTTIKEIIDYLLECKEKEPLPPITVPVSSAPCKTHILSEEKIHLQSLPTPYLHVSDGGKYLQTYGMWILQTPDKKWTNWSIARGMVVDDKHITGLVIVPQHIRQIADSWAAIGKANEIPFALCFGVPPAAILVSSMPIPEGVSESDYVGAILGESVPVVKCETNDLMVPATSEMVFEGTLSLTDTHLEGPFGEMHGYVFKSQGHPCPLYTVKAMSYRDNAILPVSNPGLCTDETHTLIGSLVATEAKELAIESGLPILDAFMPYEAQALWLILKVDLKGLQALKTTPEEFCKKVGDIYFRTKVGFIVHEIILVADDIDIFNFKEVIWAYVTRHTPVADQMAFDDVTSFPLAPFVSQSSRSKTMKGGKCVTNCIFRQQYERSFDYITCNFEKGYPKGLVDKVNENWKRYGYK

These molecules were tested on styrene production (assay: Styrene production by FDC1 mutants from tCA (colorimetric screening, confirmed by HPLC)). Conditions: E. coli cells, tCA 1 g/L, 30° C. for 4 hours.
Assay type: cell-based
Method: Saturation mutagenesis allows the change of one amino acid to 19 other alternative amino acid residues. […] The codon NNK has 32-fold degeneracy and encodes all 20 amino acids without rare codons. The QuikChange PCR products were examined by agarose gel electrophoresis and then 15 μl of PCR products were digested with 1 μl Dpnl (New England Biolabs) at 37° C. for 4 hours to remove the template plasmid. Aliquots of (2 μl) digestive products were transformed into BL21-Gold (DE3) competent cells (STRATAgene, CA) and inoculated on Luria-Bertani (LB) agar plates containing kanamycin. The quality of the library by DNA sequencing was confirmed. The library covers 90% of mutagenesis (17 mutants out of 19). To cover 100% (19 out of 19 mutant), we screened 150 mutants for each site.
The transformants (Example II.2) were inoculated in 96-well plates (NUNC, Roskilde, Denmark) containing 100 μl LB broth per well and incubated at 37° C., overnight. The cultures were then mixed with equal amount of 50% glycerol and stored at −80° C. as the master plate. An aliquot of 10 μl culture was inoculated in 2 ml deep-well plates (USA scientific) with 1 ml TB broth per well and incubated at 37° C. until the OD600 reached 1.0. The cultures were then induced by 0.2 mM IPTG and incubated at 18° C. for 20 hours with shaking at 250 rpm.
Cells were harvested and suspended with 0.25 ml PBS buffer at pH 7.0 and the substrate (tCA) was added at a final concentration of 1 g/L. The culture was incubated at 30° C. for 4 hours and the volatile product styrene was collected by using 96 well STRATA-X® reversed phase plate containing 10 mg polymer based resin (Phenomenex) on top of the culture plate (FIG. 19). To avoid styrene vapor diffusion, 96-square well silicone sealing mats with pre-slit were used between 96-well culture plate and 96 well STRATA-X® reversed phase plate. The product was collected by 200 μl propanol for each well and the amount of product was measured by colorimetric method.
Various chemicals were tested as an indicator for styrene detection, including NBP (4-nitrobenzyl-pyridine) as a preferred indicator. Styrene was mixed with cytochrome P450 BM-3 in 50 mM phosphate buffer pH 8.0. The styrene oxidation reaction was started by adding 0.2 mM NADPH, and the reaction mixture was incubated at room temperature for 5 minutes with shaking. The NBP solution was added to the mixture and incubated at room temperature for further 5 minutes with shaking which gives white precipitate. The tube or plate containing reaction mixtures were heated at 70° C. for 30 minutes and chilled on ice for 5 minutes. After adding Dimethylformamide (150 μl) and 25 μl of 1M K2CO3, the reaction mixture gave blue color that can be measured spectrophotometrically at 600 nm immediately. The […] of NBP reacts with the oxirane ring of styrene oxide to yield a blue chromophore a blue color that can be monitored spectrophotometrically at 600 nm.
The mutants showing higher activity were confirmed by HPLC using an ACQUITY UPLC BEH C18 column (1.7-μm, 2.1×50-mm, Waters, USA). The samples were resolved in 30% acetonitrile (A) with an increasing concentration gradient of acetonitrile (B) for 1 min, 95%; then to 1 min, 30%; at a flow rate of 1 ml/min. UV absorption was monitored at 254-, 280-, and 310-nm. The changed amino acid residues in the mutants showing the higher activity were confirmed by DNA sequence.

**Q.** How did the “amount of styrene compared to that of wild type (in words)” value turn out when B1 was run?
**A.** significantly higher amount of styrene

**Q.** What about the “styrene produced compared to wild type” value of the same molecule?
**A.** 3 times

**Q.** For B2, which “amount of styrene compared to that of wild type (in words)” value is on record?
**A.** significantly higher amount of styrene

**Q.** Which “amount of styrene compared to that of wild type (in words)” value does the source give for B3 here?
**A.** significantly higher amount of styrene

**Q.** What does the source list for B4?
**A.** amount of styrene compared to that of wild type (in words): significantly higher amount of styrene; styrene produced compared to wild type: 3 times
